Experimental data as given in the DeepSol protein solubility set.

assay: soluble on expression in E. coli; label from the status in PepcDB or PDB records

Sequence | soluble on expression in E. coli
MGSDKIHHHHHHMDADELELKGHLKKLKKEELLRRKQLKESNLQKRELEYNNASKNTSIYISGLPTDKTTKEGLTEQFCKYGMIRTNRDGEPLCKLYVNDKGAFKGDALITYSKEESVTLAIEMMNESIFLGKQIRVERAQFQNKEGDNMHGKENDLKEFNGPEPPIKRLKKAKSEGEGEVIDYNDDESLAKADRTVIFANVFNIYKSYTNDDINDIQEDLLEGCEEIGQVDSISVSPNKGEATVVFKNNKVALQCCKIMTGRYFDGQKLLAFISGDENTSSTSDKNEDSEVEDDLI | not soluble
RGIPQITGPTTVNGLERGSLTVQCVYRSGWETYLKWWCRGAIWRDCKILVKTSGSEQEVKRDRVSIKDNQKNRTFTVTMEDLMKTDADTYWCGIEKTGNDLGVTVQVTIDPAPVTQEETSSSPT | soluble
MGSDKIHHHHHHMHHIGLTRPYSWGIKNFELITVTEKLNIHIQGQGFPILGLHGHPGSGRSLSVFTNHLSKRYQTIAPDLRGYGTSRFRGNFTMQDHLTDLEALLDRLQIEKCLVLGWSLGGILAMELALRLPQRITGLILVATAARPRGNHPPISWQDNLYTGVAGLLNYIKPGWRWNIETFGKRSLFRYLIQQHTPTAYNYIAREALPAYLQTSPSATRALNSALRLGYNRLADLEQIHCPSLVLAGAQDKHITADSSLETAQHLKQSQWQCYPHTAHLFPWEIPQQVINDIDLWLANNSQVMSN | not soluble
MSLPIRVPDELPAVNFLREENVFVMTTSRASGQEIRPLKVLILNLMPKKIETENQFLRLLSNSPLQVDIQLLRIDSRESRNTPAEHLNNFYCNFEDIQEQNFDGLIVTGAPLGLVEFNDVAYWPQIKQVLEWSKDHVTSTLFVCWAVQAALNILYGIPKQTRTDKLSGVYEHHILHPHALLTRGFDDSFLAPHSRYADFPAALIRDYTDLEILAETEEGDAYLFASKDKRIAFVTGHPEYDAQTLAQEYFRDVEAGLDPEVPYNYFPHNDPQNKPRASWRSHGNLLFTNWLNYYVYQITPYDLRHMNPTLDEGHHHHHH | soluble
MGSDKIHHHHHHMIQVPASFDIQGHRGCRGLLPENTIAAFTKALLLGVTTLEFDLVISKDNRVVVSHDTFFHHEITMMVDGEDVTEANEKNFNLYAMNYADIKEIDVGMKTHPRFKSQKKVPAVKPLFRELIETAEKLSAKIQYNGEIKSTVEGDNIDHPNIALFCDLVVAEIKKAHITDRFTLQSFDVRALEYMHSQYPDIKLSYLVETKGTLKKQLEKLSFTPAVYSPDVTLVSKKDIDAAHKLGMRVIPWTVNTKEEIETLISLGVDGIITDYPDLFFEK | not soluble
MGSDKIHHHHHHMITKEDIVADVVTDYPKSADIFRNAGIDFCCGGQESIASAVNHKPNIDLNSLLNKLNHIDNTEGNSTINPKFLNVESLIQYIQSAYHETLKEEFKNLTPYMTKLAKVHGPSHPYLLKLQDLYREFRDSMLDHIRKEDEEDFPKLIQYSQGQDVQNIKIILEDLINDHEDTGQLLNVMNQLTSDYQTPEEACGTWKLVYQRLQNIERQTHQHVHLENHVLFKKVS | not soluble
MSLGKKELIGFQVGVRESTQSWHELLVEAKTRGLKIAPEIAVGDGALGFWKALDEVFPATRHQRCWVHKTANILNKVAVSVQASMKKDLREVYLASNRASAEVAIDVFAEKYGAKYDKAVECLTKDRDAMLAFYEFPAEHWDHLRTTNPIESVFATVRHRTVRTKGSLSSTTAKLMVFKLLCAASKTWRRLKGTNQLPKVSAGVRFENGIEEGHHHHHH | not soluble
MQVSVRDNNVDQALRALKKKLQREGVFREMKLKQHFEKPSEKKAREKAEAIRRARKLARKKAQREGMLLEHHHHHH | not soluble
PNLTEISKKITESNAVVLAVKEVETLLASIDELATKAIGKKIGNNGLEANQSKNTSLLSGAYAISDLIAEKLNVLKNEELKEKIDTAKQCSTEFTNKLKSEHAVLGLDNLTDDNAQRAILKKHANKDKGAAELEKLFKAVENLSKAAQDTLKNAVKELTSPIVA | soluble
MAGDPMVTQNKKILIITGSFGNGHLQVTQSVVNQFKEMNLDNLTVIEHDLFLEAHPILTSICKKWYINSFKYFRNMYKAFYYSQPDQLDKCFYKYYGLNKLMNLLLKEKPDLILLTFPTPVMSVLTEQFDMNIPIATVMTDYRMQKNWITPFSQRYYLATEELKDEFASIGIPKDKLKVTGIPISDKFETDIDKTAWLSQNHLDPDKPTILMSAGAFGVSKGFGQMIQEILNRSPHAQVVMICGKNKDLKRSLTSQFKDFNNVLILGYTKHMNEWMASSQLMITKPGGITISEALTRQIPMIFLDPAPGQELENAVYFEEKGYGRIANTPEAAIEQVAALTNAPTKLASMSESMDASRIPYSTYKLCKDLLNLLNHSSHYEEVYGKVPLYAKLFVKLEHHHHHH | not soluble
MKIVAVTACPTGIAHTYMAADALMKAAPKHNVQIKVETQGAMGIENQLTPHDIAQADRVLIVSDIEIEQPGRFEGTRKIQIPIEEVLLNVDKVFLVHCRD | soluble
MKKVLIKGAMALLLSSYSMIVSAEDKTITLMLDWFVNPNHGPVVVAQQKGYFKEEGLNITIQEPADPSMPAKLVAANNIDLAISYQTSLTIDVAAGLPLIRSATLIATPLNTLMVLDNGKINSLADLKGKKIGIAIAGNEEATIGTMLKTENVNFSDVNIINVGWALSSSLASGKVDAIWGGLRNFETNQLALEGYKAKSFFPEEHGVPSYDELVFVANAKTYDADALKKFNHAIEKATQFIVNHPEESWKTFISYAPDTLNNELNKRAWNDTLTRFALRPSAVDLQRYDRFSDFMYRHQMIKTQPKAQNFVPVL | not soluble
MGGSHHHHHHGMASALASYFDEHDCEPSDPEQETRTNMLLELARSLFNRMDFEDLGLVVDWDHHLPPPAAKTVVENLPRTVIRGSQAELKCPVCLLEFEEEETAIEMPCHHLFHSSCILPWLSKTNSCPLCRYELPTDDDTYEEHRRDKARKQQQQHRLENLHGAMYT | not soluble
MSLELKPKRFLVLDDQLVLRKLISRQASFFTRFAVEIDEFSDPAEALRSIAEGGYHLVITDIGMPGMNGIDFIKNVARLGYQSALLIISGYDGKTLQTIADMSVNLGLSCTRFLSKPYSAEAFVAALNGIFSEMERSEAEGHHHHHH | not soluble
MAGDPMKVAFITLGCRVNSYESEAMAEKFIKSGWEIVDNDEKADAYVINTCTVTNMGDRKSRQMISRARKANKDAVIAAVGCYSQVEPEKVAEIEGVDIVLGTKNKGDIIHYVNKFIEERNQIVNVKDVFTDKKFEDLNIDEYQDKTRAFLKIQDGCNRFCSYCLIPYARGGVCSKNPEKVIGEIKRLAEHGFKEIILSGIHIASYGDDLKGDWNLISIIEKAEQIDGIERIRIGSIEPRFFDEDTISKIKNMKKMCPHFHLSLQSGCTETLERMNRKYTAEEYKEIVYKLRENISDVSITTDVIVGFPGETDEEFEKTYDFLKEIELAKMHVFKYSPREGTKAAAMKNQINGNVKDKRSAELIELDKINEKKFMSKFLDREMDVLFEKKLEENEDLYEGYTPNYIKVVVKSSEDISRKILKVKLTEIQDEHLLGELILYKLEHHHHHH | soluble
MDCRLGCGACCIAPSISSPIPGMPKGKPAGVRCVQLNDDNLCKLFGKPERPKVCHDFKPCPVVCGKTNQEALDNITELEQLTLEHHHHHH | soluble
MSLDYNNITEALQAFRTEKAYRHAPLRSCFFDMDGVLFDSMPAHARSWVEAAGECGIAAEPLDFYRWEGQKGSDTIKILFERGYGRLPTEKEIADMYGRKSQLFALYNSGNVIDDAPALVSDVCDRGLRIMLVTGSSQTDILQRLQRSYGDNFSPANMVTGADVHRGKPHPEPYLKALECVGMSPSEAFVVENAPLGVRAAVDAGIFTIAVNTGCLPDADLWDAGASLVLPSMAVLRSLLGELLTESLSSSAEGHHHHHH | soluble
MSLTGRAVIGVIGNAHLVDNRFAVQHVGERNLRAVAEVAGALPLMFGGSSEFAQIEDLLEVVDGILLTGGRANVHPTYFKTAPNPRHEPYDQPRDELALALVRTCVERGVPLFGICRGFQEMNVAYGGSLHPEIRELPGRMNHRMPRLENGEIHPDPTVVFADRHDVQLTSDGVFARLLGRDLIRVNSLHGQGILEPGPRIVIEGVAEDGTIEAIRIADAPGFALGVQWHAEYDPQVNPINRALFVAFGEAVSAYRTARKRPAALRRSEGHHHHHH | soluble
MAKAFEEQRRSPDLEALPFEDRIGLLVDREAAERDTRRLTTRLKIAALRQTACVEDVDLRTPRGIDRAVFAKLVEGRWIDRHENLLVTGATGLGKSWLACALGHKACRDNRSVLYHRVPRLFEALALARGDGRYARLLKSLGRAQLLILDDWGLSVLTAAERRDLLEILEDRHGRASTIVTRQLPVDTWHGAIGDPTVADAILDRLVHNAHRLQLTGESMRKRSAKTITLDGQPEHAAALEHHHHHH | not soluble
MANPAAAAGPSGGARSFLQAVSTVTEEAPSPLRVVQMEGLAVLKIIKHCEEFAPALVTGQLLGLDVGSVLEVTNCFPFPMREDDEEADADGANYQLEMMRCLREVNVDNNTVGWYQSCLLGSFQTVELIETFMNYQENIRRCVCIVYDPSRSNQGVLALKALKLTDSFMDLYRNNGLTGEKLREKKLSWVDIFEEIPIKVSNSALVSAFMTELEPESPVSQCDFDRLKLSTAPFMERNLEFLIGCMDDLSSEQNKFQYYYRNVSRQQSQQQAWLQKRRQENMARKAAGEEPLPEEDPSNPIFKPIPEPSRLEGYLVTNQISSYCNHINGVAGQNFNRLYLMKALQED | soluble
MGSDKIHHHHHHMKVSEFDYELPPELIAQEPVEPRDASRLMVLHRKTQRIEHRIFREIIEYLEPGDLLVLNVSKVIPARLYARKKTGASIEILLIERLEEGIWKCLVRPGQKVKKGTELVIDEDLSAVCLGRGEDGTRILKFQPQDDRLIFEKGRTPLPPYIKNEVPLERYQTVYAKEEGSVAAPTAGLHFTPELIEKLKKKGVQFAEVVLHVGIGTFRPVKVEEVEKHKMHEEFYQVPKETVRKLRETRERGNRIVAVGTTTVRTLETIARLPEQEEYVGKTDLFIYPPFEFKLVDALVTNFHLPRSTLLMLVAAFAGKDFVMEAYREAVKRRYRFFSFGDAMLIL | soluble
MGSDKIHHHHHHSAGPIHPASLDIDNGNGTNVFIAYEWVDYDYKTYTENGLALDEAWGHLYMAIVAVAGVHVTGYVHNDIDRGNFVINSDGILKLTDFGMSSSKDASCSGKALFFPPETFQPGFFQRKRDASALARVQARDLFQVGNTMLEAILGKEGEIYQAERYGLKLAMVKKKPDFKQDLKVVIQDEKKFRKSFGKIGTKKIEDKLCVDPSRQAEVVKNLARWGLQNSLSL | not soluble
MGSDKIHHHHHHMQKSRPEQDVHEDIKILIQTHFGESGQGIHIEVKGDKVSLWGTVDSLAEKDFIGQRIGRIDGVKELDNSLTVANDGKITDKDIEKQVVERFAQSNFEEIMHLGCRASKGIVTLLGHLETQSSERLAKRIASQVRGVKEVRSEIDFLEKAVDDATLVNRVENALVASPWVNAHEIKTSARNGLITLTGMVNTQEEMEWAVDTAYQVPGVKAVVSEIFSRHRSQGEDLYMTEQLVRKLGQHGMTSQLVRAFVQDGIAYMTGEVYSDEDRRWAESMGQHVEGIKSINSSIKVAAHSSK | not soluble
MITVKNIEGSETYVLRQKILRPNQTLADCKYPSDYETDTFHLGAFINDQLISIASFSKEMHPDLQAGMHYRLRGMATLPEFRNNHAGSSLIQKAEQILQERQANMLWCNGRITVADYYKRLGFQEHGEIFEIEPIGLHKVLYKRI | not soluble
